Experimental data from publication PMC8351545 (Molecular Biology of the Cell, 2021).
Each block holds one molecule with its values, some of them ahead of it.

Experiments:
[1] = biological target: recombinant phosphomimetic CENP-T/W complex (T11D, T27D, T85D) (human) (UniProt Q96BT3); assay: pull-down
[2] = biological target: recombinant full-length wild-type CENP-T/W complex (human, UniProt Q96BT3 1-561; Q5EE01 1-88); assay: pull-down
recombinant full-length wild-type CENP-T/W complex, sequence (Q96BT3 whole entry, chain 1 of 2): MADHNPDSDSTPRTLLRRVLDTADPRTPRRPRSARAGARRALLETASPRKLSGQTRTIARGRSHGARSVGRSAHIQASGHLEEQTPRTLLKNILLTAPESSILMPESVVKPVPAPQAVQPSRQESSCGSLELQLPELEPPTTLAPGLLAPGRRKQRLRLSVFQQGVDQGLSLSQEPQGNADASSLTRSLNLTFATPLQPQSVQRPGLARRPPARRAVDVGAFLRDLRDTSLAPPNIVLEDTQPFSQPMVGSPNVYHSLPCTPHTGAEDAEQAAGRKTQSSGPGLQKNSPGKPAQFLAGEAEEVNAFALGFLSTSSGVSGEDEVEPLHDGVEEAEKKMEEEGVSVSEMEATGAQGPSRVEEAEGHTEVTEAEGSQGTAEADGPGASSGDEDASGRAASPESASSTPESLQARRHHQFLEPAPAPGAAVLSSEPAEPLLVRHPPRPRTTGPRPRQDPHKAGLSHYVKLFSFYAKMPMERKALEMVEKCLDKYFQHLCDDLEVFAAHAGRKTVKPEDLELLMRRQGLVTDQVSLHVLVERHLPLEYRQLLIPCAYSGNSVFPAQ
recombinant full-length wild-type CENP-T/W complex, sequence (Q5EE01 whole entry, chain 2 of 2): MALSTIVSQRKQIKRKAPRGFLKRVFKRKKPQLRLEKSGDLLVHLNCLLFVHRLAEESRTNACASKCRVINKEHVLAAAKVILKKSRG

recombinant phosphomimetic CENP-T/W complex (T11D, T27D, T85D) (human), sequence (Q96BT3 whole entry T11D/T27D/T85D, chain 1 of 2): as the sequence (Q96BT3 whole entry, chain 1 of 2) above, with T11D, T27D, T85D counted along it
recombinant phosphomimetic CENP-T/W complex (T11D, T27D, T85D) (human), sequence (Q5EE01 whole entry, chain 2 of 2, further chain): as the sequence (Q5EE01 whole entry, chain 2 of 2) above

fold weaker recruitment than the Ndc80 proteins with shortened stalk [1]: 5 times weaker
Molecule: recombinant full-length GFP-fused human Ndc80 complex (from UniProt O14777 1-642; Q9BZD4 1-464; Q8NBT2 1-197; Q9HBM1 1-224)

binding result [2]: binds
B1: human Bonsai Ndc80 complex (Bonsai Ndc80-GFP) (complex)
chain 1: MKRSSVSSGGAGRLSMQELRSQDVNKQGLYTPQTKEKPTFGKLSINKPTSERKVSLFGKRTSGHGSRNSQLGIFSSSEKIKDPRPLNDKAFIQQCIRQLCEFLTENGYAHNVSMKSLQAPSVKDFLKIFTFLYGFLCPSYELPDTKFEEEVPRIFKDLGYPFALSKSSMYTVGAPHTWPHIVAALVWLIDCIKIHTAMKESSPLFDDGQPWGEETEDGIMHNKLFLDYTIKCYESFMSGADSFDEMNAELQSKLKDLFNVDAFKLESLEAKNRALNEQIARLEQERSTANKANAERLKRLQKSADLYKDRLGLEIRKIYGEKLQFIFTNIDPKNPESPFMFSLHLNEARDYEVSDSAPHLEGLAEFQENVRKTNNFSAFLANVRKAFTATVYN
chain 2: METLSFPRYNVAEIVIHIRNKILTGADGKNLTKNDLYPNPKPEVLHMIYMRALQIVYGIRLEHFYMMPVNSEVMYPHLMEGFLPFSNLVTHLDSFLPICRVNDFETADILCPKAKRTSRFLSGIINFIHFREACRETYMEFLWQYKSSADKMQQLNAAHQEALMKLERLEKEVDEDTTVTIPSAVYVAQLYHQVSKIEWDYECEPGMVKGIHHGPSVAQPIHLDSTQLSRKFISDYLWSLVDTEW
